Columns and labels:
[1] = tested on: brain, spinal cord, and DRG of the NHPs; test: NGS fold enrichment of synthetic library (passage 3) in NHPs, first cross-species screen; assay type: in vivo, cynomolgus macaques (Macaca fascicularis)
Summary of the method: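 Synthetic capsid library (passage 3) was given intravenously […] to NHPs aged 2-4 years and to BALB/c and C57Bl/6 mice (n=3 each, 6-8 weeks). After about 28 days in vivo, tissue RNA was RT-PCR amplified and NGS-sequenced; values are fold enrichment per variant relative to wild-type AAV9.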

brain = test: Second cross-species screen, synthetic library passage 3 in C57Bl/6 mice; assay type: in vivo; details: third passage (P3)
Experimental: There were approximately 500 variants in this synthetic library. This synthetic library was then injected back into both strains of mice (C57Bl/6 and BALB/c; passage 3). RNA was recovered from the mouse brains, RT-PCR amplification was performed, and fold-enrichment relative to wild-type AAV9 was calculated by NGS analysis, which is provided in Table 11.

[2] = molecular target: T1, isoform 1 (Alkaline phosphatase, placental-like 2 (ALPPL2)) (Homo sapiens, UniProt P10696); test: Transduction assay in HEK 293T cells expressing isoform 1; assay type: cell-based
T1 construct: expressed in transfected cells; host or cells: HEK 293T
T1 sequence (P10696 20-503): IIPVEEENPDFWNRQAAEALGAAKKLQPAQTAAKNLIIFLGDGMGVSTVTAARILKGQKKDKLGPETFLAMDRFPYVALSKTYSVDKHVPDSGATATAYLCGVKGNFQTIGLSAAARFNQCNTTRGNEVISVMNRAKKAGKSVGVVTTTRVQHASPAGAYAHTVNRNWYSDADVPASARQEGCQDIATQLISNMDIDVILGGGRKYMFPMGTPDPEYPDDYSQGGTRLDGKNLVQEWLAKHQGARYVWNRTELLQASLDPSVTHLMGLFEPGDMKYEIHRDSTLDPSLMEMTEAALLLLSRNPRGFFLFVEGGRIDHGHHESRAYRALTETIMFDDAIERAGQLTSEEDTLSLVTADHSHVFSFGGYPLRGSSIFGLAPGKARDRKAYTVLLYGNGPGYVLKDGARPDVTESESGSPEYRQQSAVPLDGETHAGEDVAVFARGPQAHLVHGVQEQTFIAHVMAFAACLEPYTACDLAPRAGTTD
Excerpt: Three isoforms of ALPL exist, isoform 1 (Alkaline phosphatase, placental-like 2 (ALPPL2), NM_031313, which is incorporated by reference herein), isoform 2 (alkaline phosphatase, placental (ALPP), NM_001632, which is incorporated by reference herein), and isoform 3 (alkaline phosphatase, intestinal (ALPLI), NM_001631, which is incorporated by reference herein), that can also be expressed on cell surfaces via a GPI-anchor. Isoform 1 is 56.25% identical and 72.54% similar (gaps: 4.17%) to ALPL, isoform 2 is 54.96% identical and 71.37% similar (gaps: 2.29%) to ALPL, and isoform 3 is 55.98% identical and 72.11% similar (gaps: 3.04%) to ALPL. The transduction assay described above was repeated with the three isoforms. HEK 293T cells were transfected via calcium phosphate transfection with a plasmid expressing ALPL, isoform 1 of ALPL, isoform 2 of ALPL, isoform 3 of ALPL, an AAVR positive control, or a pCMV6 negative control. […] At 24-hours post-transduction, luciferase activity (RLU) was measured to quantify AAV cellular transduction.

[3] = tested on: GPI anchored proteins (endogenous ALPL) on HeLa cells; test: Transduction of HeLa cells after PI/PLC removal of GPI anchored proteins; assay type: cell-based, human; details: 1E4 VG/cell
Experimental: Endogenous ALPL was also removed from the surface of HeLa cells by treatment with increasing concentrations phosphatidylinositol-specific phospholipase C (PI/PLC), which cleaves GPI anchored proteins (0, 1, 3, 6, or 10 U/mL), for 1.5 hours at 37° C. Following PI/PLC treatment, cells were incubated with 1E4 VG/cell for three hours of AAV particles comprising the TTM-002 capsid variant or AAV particles comprising an AAV9 control capsid, cells were then washed to remove free virus, and luciferase activity was measured 24 hours post-transduction (RLU).

ALPL on HeLa cells = molecular target: T2, ALPL on HeLa cells (Homo sapiens, UniProt P05186); test: Transduction of HeLa cells after blocking with an anti-ALPL antibody; assay type: cell-based; details: for Transduction in Hela cells as measured by luciferase assay (RLU): 1E4 VG/cell
T2 construct: knockdown endogenous levels of ALPL in HeLa cells; endogenous in cells; host or cells: HeLa
T2 sequence (P05186 18-501): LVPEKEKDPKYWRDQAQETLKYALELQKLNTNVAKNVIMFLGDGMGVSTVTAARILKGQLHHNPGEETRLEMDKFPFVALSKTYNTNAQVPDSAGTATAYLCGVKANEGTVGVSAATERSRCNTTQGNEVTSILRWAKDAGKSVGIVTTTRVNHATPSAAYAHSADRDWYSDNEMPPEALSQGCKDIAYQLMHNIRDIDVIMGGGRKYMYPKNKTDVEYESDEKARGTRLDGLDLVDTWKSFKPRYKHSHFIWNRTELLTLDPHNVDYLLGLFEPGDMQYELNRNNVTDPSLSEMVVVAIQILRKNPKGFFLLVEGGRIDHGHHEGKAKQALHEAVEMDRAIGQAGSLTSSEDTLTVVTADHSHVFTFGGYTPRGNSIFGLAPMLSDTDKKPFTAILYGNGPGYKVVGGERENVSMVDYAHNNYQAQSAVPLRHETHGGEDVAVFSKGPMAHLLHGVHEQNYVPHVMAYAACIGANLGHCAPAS
Experimental: Following incubation, the cells were transduced with 1E4 VG/cell of AAV particles comprising the TTM-002 capsid variant or an AAV9 control expressing a GFP-luciferase payload. After a 4 hour incubation period the AAV and media were removed and replaced with fresh media and luciferase activity was measured (RLU) 24 hours post transduction.

[4] = tested on: HEK 293T cells transfected with pCMV6 negative control; test: Binding and internalization assay in HEK 293T cells transfected with pCMV6 negative control (viral genomes); assay type: cell-based; details: pCMV6 transfected cells (negative control, reference)
Experimental: Binding and internalization of AAV capsid variants comprising the TTM-001 capsid variant, the TTM-002 capsid variant, or the AAV9 control capsid was also investigated in cells engineered to express ALPL. HEK 293T cells were transfected via calcium phosphate transfection with a plasmid expressing ALPL, an AAVR positive control, or a pCMV6 negative control. At 24 hours post-transfection, the HEK 293T cells expressing the ALPL receptor were incubated with an AAV particle comprising the TTM-001 capsid variant, the TTM-002 capsid variant, or an AAV9 control capsid protein, expressing a GFP payload. At 2 or 3-hours post-incubation, cells were washed to remove unbound AAV particles and DNA was extracted to quantify viral genomes.

B1: TTM-002: AAV9 capsid variant comprising HDSPHK (SEQ ID NO: 2) in loop IV (protein)
chain 1: MAADGYLPDWLEDNLSEGIREWWALKPGAPQPKANQQHQDNARGLVLPGYKYLGPGNGLDKGEPVNAADAAALEHDKAYDQQLKAGDNPYLKYNHADAEFQERLKEDTSFGGNLGRAVFQAKKRLLEPLGLVEEAAKTAPGKKRPVEQSPQEPDSSAGIGKSGAQPAKKRLNFGQTGDTESVPDPQPIGEPPAAPSGVGSLTMASGGGAPVADNNEGADGVGSSSGNWHCDSQWLGDRVITTSTRTWALPTYNNHLYKQISNSTSGGSSNDNAYFGYSTPWGYFDFNRFHCHFSPRDWQRLINNNWGFRPKRLNFKLFNIQVKEVTDNNGVKTIANNLTSTVQVFTDSDYQLPYVLGSAHEGCLPPFPADVFMIPQYGYLTLNDGSQAVGRSSFYCLEYFPSQMLRTGNNFQFSYEFENVPFHSSYAHSQSLDRLMNPLIDQYLYYLSKTINGHDSPHKSGQNQQTLKFSVAGPSNMAVQGRNYIPGPSYRQQRVSTTVTQNNNSEFAWPGASSWALNGRNSLMNPGPAMASHKEGEDRFFPLSGSLIFGKQGTGRDNVDADKVMITNEEEIKTTNPVATESYGQVATNHQSAQAQAQTGWVQNQGILPGMVWQDRDVYLQGPIWAKIPHTDGNFHPSPLMGGFGMKHPPPQILIKNTPVPADPPTAFNKDKLNSFITQYSTGQVSVEIEWELQKENSKRWNPEIQYTSNYYKSNNVEFAVNTEGVYSEPRPIGTRYLTRNL
chain 2: GHDSPHKSGQNQQT
fold enrichment in the DRG of NHPs relative to AAV9 ([1]; passage 3, intravenous, DRG): 0.0 fold
fold enrichment in the brain of NHPs relative to AAV9 ([1]; passage 3, intravenous, brain): 62.6 fold
fold enrichment in the spinal cord of NHPs relative to AAV9 ([1]; passage 3, intravenous, spinal cord): 15.6 fold
Fold enrichment over AAV9 in the brain of NHPs ([1]; synthetic library passage 3, intravenous, RNA NGS, brain of NHPs, relative to wild-type AAV9): 62.612 fold
Fold enrichment over AAV9 in the spinal cord of NHPs ([1]; synthetic library passage 3, intravenous, RNA NGS, spinal cord of NHPs, relative to wild-type AAV9): 15.641 fold
Fold enrichment over AAV9 in C57Bl/6 (brain): 51.125 fold
Luciferase Activity (RLU) ([2]; Table 30, Isoform 1 transfected cells): 1,114 RLU
increase in transduction in cells expressing isoform 1 ([2]; luciferase activity (RLU)): did not occur
transduction after PI/PLC treatment ([3]; HeLa, luciferase 24 hours): significantly decreased transduction
Transduction in HeLa as measured by luciferase assay (RLU) following treatment with PI/PLC ([3]; PI/PLC 0 U/mL): 1731 RLU
Transduction in HeLa as measured by luciferase assay (RLU) following treatment with PI/PLC ([3]; PI/PLC 1 U/mL): 474 RLU
Transduction in HeLa as measured by luciferase assay (RLU) following treatment with PI/PLC ([3]; PI/PLC 3 U/mL): 441 RLU
Transduction in HeLa as measured by luciferase assay (RLU) following treatment with PI/PLC ([3]; PI/PLC 6 U/mL): 396.7 RLU
Transduction in HeLa as measured by luciferase assay (RLU) following treatment with PI/PLC ([3]; PI/PLC 10 U/mL): 239.3 RLU
Transduction in Hela cells as measured by luciferase assay (RLU) (ALPL on HeLa cells; Anti-ALPL antibody 0 μg/mL): 4701 RLU
Transduction in Hela cells as measured by luciferase assay (RLU) (ALPL on HeLa cells; Anti-ALPL antibody 3.125 μg/mL): 5042.67 RLU
Transduction in Hela cells as measured by luciferase assay (RLU) (ALPL on HeLa cells; Anti-ALPL antibody 6.25 μg/mL): 5220 RLU
Transduction in Hela cells as measured by luciferase assay (RLU) (ALPL on HeLa cells; Anti-ALPL antibody 12.5 μg/mL): 5556.67 RLU
transduction in the presence of anti-ALPL antibody vs isotype control (ALPL on HeLa cells; HeLa, 0-12.5 μg/mL antibody): decreased TTM-002 transduction in a dose dependent manner
Transduction in Hela cells as measured by luciferase assay (RLU) (ALPL on HeLa cells; IgG isotype control 0 μg/mL): 4113.33 RLU
Transduction in Hela cells as measured by luciferase assay (RLU) (ALPL on HeLa cells; IgG isotype control 3.125 μg/mL): 527.33 RLU
Transduction in Hela cells as measured by luciferase assay (RLU) (ALPL on HeLa cells; IgG isotype control 6.25 μg/mL): 186.67 RLU
Transduction in Hela cells as measured by luciferase assay (RLU) (ALPL on HeLa cells; IgG isotype control 12.5 μg/mL): 136 RLU
Fold change in viral gene expression (2^-ΔΔCT) relative to pCMV6 transfected cells [4]: 1 fold
